Data reported in US20250257133A1 (ADAGENE PTE, published 2025).

Target: T1, B7H3 on MDA-MB-231 cells (UniProt Q5ZPR3 29-534, limits assumed)
T1 construct: whole, on cells
T1 sequence (looked up): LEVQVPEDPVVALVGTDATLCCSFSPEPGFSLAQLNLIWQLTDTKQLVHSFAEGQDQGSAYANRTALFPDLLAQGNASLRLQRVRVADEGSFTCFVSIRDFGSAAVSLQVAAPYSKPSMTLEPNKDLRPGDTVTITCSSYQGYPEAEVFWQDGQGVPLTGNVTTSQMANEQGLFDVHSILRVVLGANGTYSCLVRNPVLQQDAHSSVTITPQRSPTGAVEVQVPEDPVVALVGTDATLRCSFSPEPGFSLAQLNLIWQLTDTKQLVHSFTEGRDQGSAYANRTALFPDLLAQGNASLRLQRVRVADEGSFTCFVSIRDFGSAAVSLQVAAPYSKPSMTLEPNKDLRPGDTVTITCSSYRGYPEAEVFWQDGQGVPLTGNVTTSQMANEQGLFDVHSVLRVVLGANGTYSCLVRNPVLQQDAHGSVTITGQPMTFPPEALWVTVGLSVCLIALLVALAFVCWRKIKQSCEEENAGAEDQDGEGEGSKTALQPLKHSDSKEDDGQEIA
Experiment: flow cytometry, MDA-MB-231 cells
Procedure: An isotype antibody was included as a negative control.
MDA-MB-231 cells were cultured and seeded in 96-well plates at 1.0×10⁵ cells/well and incubated with serially diluted test BsAbs for 60 minutes at 4° C. in 2% FBS/RPMI1640 buffer. Next, the cells were washed twice with DPBS and further incubated with secondary APC-anti-human IgG Fe antibody (1:400 dilution) for 30 minutes at 4° C. Finally, the cells were washed twice with DPBS and resuspended in FACS buffer for flow cytometry analysis. For analysis, the MFI values versus concentrations were plotted using FlowJo 10 software (FlowJo LLC) and the data were further fitted with four-parameter non-linear regression to obtain EC₅₀ values by GraphPad Prism version 7 for Windows.

EC50: 12.8 nM | fold reduction of binding activity against TY21601: ~28 fold
B1: TY27556 (bispecific antibody, human IgG1, kappa, N297A)
light: DIQLTQSPSSLSASVGDRVTITCRASQSIRKYLNWYQQKPGKAPKLLIYAASTLQSGVPSRFSGSGSGTDFTLTISSLQPEDFATYFCSQGTHVPFTFGQGTKVEIKRTVAAPSVFIFPPSDEQLKSGTASVVCLLNNFYPREAKVQWKVDNALQSGNSQESVTEQDSKDSTYSLSSTLTLSKADYEKHKVYACEVTHQGLSSPVTKSFNRGEC
heavy: EVQLVESGGGLVQPGGSLRLSCAASGFTFSGYGIHWVRQAPGKGLEWIGWISPSGGDTKYAQKFQGRVTISRDNSKNTLYLQLNSLRAEDTAVYYCARGGTVVYFDYWGQGTLVTVSSASTKGPSVFPLAPSSKSTSGGTAALGCLVKDYFPEPVTVSWNSGALTSGVHTFPAVLQSSGLYSLSSVVTVPSSSLGTQTYICNVNHKPSNTKVDKKVEPKSCDKTHTCPPCPAPELLGGPSVFLFPPKPKDTLMISRTPEVTCVVVDVSHEDPEVKFNWYVDGVEVHNAKTKPREEQYASTYRVVSVLTVLHQDWLNGKEYKCKVSNKALPAPIEKTISKAKGQPREPQVYTLPPSRKKLTKNQVKLTCLVKGFYPSDIAVEWESNGQPENNYKTTPPVLDCDGSFFLYSKLTVDKSRWQQGNVFSCSVMHEALHNHYTQKSLSLSPGK
chain: DIQLTQSPSSLSASVGDRVTITCRASQSVDFHGISFLHWYQQKPGKAPKLLIYAASSLQSGVPSRFSGSGSGTDFTLTISSLQPEDFATYYCQQSYRSPRTFGQGTKVEIKGGGGSGGGGSGGGGSGGGGSEVQLVESGGGLVQPGGSLRLSCAASGFSLSTGGVGVSWIRQAPGKGLEWIGEIYHSGSTYYSPSLKSRVTISRDNSKNTLYLQLNSLRAEDTAVYYCARYEYYYYDFDYWGQGTLVTVSSEPKSSDKTHTCPPCPAPELLGGPSVFLFPPKPKDTLMISRTPEVTCVVVDVSHEDPEVKFNWYVDGVEVHNAKTKPREEQYASTYRVVSVLTVLHQDWLNGKEYKCKVSNKALPAPIEKTISKAKGQPREPQVYTDPPSRDELTKNQVSLTCLVDGFYPSDIAVEWESNGQPENCYKTTPPVLDSDGSFFLYSKLTVDKSRWQQGNVFSCSVMHEALHNHYTQDSLSLSPGK
notes: also called anti-B7H3xCD28 BsAb
